Changes are numbered by the printed parent chain.
T1: wild-type IL-17RC (wtIL-17RC) (human, UniProt Q8NAC3 21-538, limits assumed)
T1 construct: also called IL-17RC wild type
T1 sequence (looked up): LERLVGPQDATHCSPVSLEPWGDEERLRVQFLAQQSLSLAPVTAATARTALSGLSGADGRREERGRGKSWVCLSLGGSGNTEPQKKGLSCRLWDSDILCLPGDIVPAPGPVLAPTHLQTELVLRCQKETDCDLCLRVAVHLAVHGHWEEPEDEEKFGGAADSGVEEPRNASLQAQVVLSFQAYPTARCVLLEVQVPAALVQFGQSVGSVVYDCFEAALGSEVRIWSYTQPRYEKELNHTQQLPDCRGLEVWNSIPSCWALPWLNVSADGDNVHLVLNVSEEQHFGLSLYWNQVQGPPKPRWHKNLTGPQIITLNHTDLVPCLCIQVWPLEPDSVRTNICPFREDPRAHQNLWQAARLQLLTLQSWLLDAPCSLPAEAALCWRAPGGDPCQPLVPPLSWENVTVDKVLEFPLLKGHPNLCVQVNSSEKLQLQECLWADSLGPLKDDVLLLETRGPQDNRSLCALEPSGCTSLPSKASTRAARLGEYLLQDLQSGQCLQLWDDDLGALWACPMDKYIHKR

B1: T1-T4-14 (Fc fusion)
chain: LRLLDHRAPVCSQPGLNCTVKNSDCLDDSWIHPRNLTPSSPKDLQIQLHFAHTQQGDLVPVAHIEWTLQTDASILYLEGAELSVLQLDTNERLCVRFEFLSKLRHHHRRWRFTFSHFVVDPGQEYEVTVHHLPKPIPDGDPNHQSKNFLVPDCEHPRMKVTTPCMSSALPWLNVSADGDNVHLVLNVSEEQHFGLSLYWNQVQGPPKPRWHKNLTGPQIITLNHTDLVPCLCIQVWPLEPDSVRTNICPFREDPRAHQNLWQAARLRLLTLQSWLLDAPCSLPAEAALCWRAPGGDPCQPLVPPLSWENVTVDKVLEFPLLKGHPNLCVQVNSSEKLQLQECLWADSLGPLKDDVLLLETRGPQDNRSLCALEPSGCTSLPSKASTRAARLGEYLLQDLQSGQCLQLWDDDLGALWACPMDKYIHKTGIEGRMDRNTGRGGEEKKKEKEKEEQEERETKTPECPSHTQPLGVFLFPPKPKDTLMISRTPEVTCVVVDVSQEDPEVQFNWYVDGVEVHNAKTKPREEQFNSTYRVVSVLTVLHQDWLNGKEYKCKVSNKGLPSSIEKTISKAKGQPREPQVYTLPPSQEEMTKNQVSLTCLVKGFYPSDIAVEWESNGQPENNYKTTPPVLDSDGSFFLYSRLTVDKSRWQEGNVFSCSVMHEALHNHYTQKSLSLSLGKGGGGSGGGGSGGGGSLELPAQVAFTPYAPEPGSTCRLREYYDQTAQMCCAKCPPGQHAKVFCTKTSDTVCDSCEDSTYTQLWNWVPECLSCSSRCSSDQVETQACTREQNRICTCRPGWYCALSKQEGCRLCAPLSKCRPGFGVARPGTETSDVVCKPCAPGTFSNTTSSTDICRPHQICSVVAIPGNASMDAVCTSTSPTRSMAPGAVHLPQPVSTRSQHTQPTPGPSTAPSTSILLPMGPSPPAEGSTGD
notes: also called T1c-Fc-T4g; IL-17RA/RC-Fc-TNFR2 (T1-T4-14)
B2: T1-T4-30 (Fc fusion)
chain: B1 chain with A729S, P732S, S815R, S860N, G906E, I915F
B3: T1-T4-07 (Fc fusion)
chain: B1 chain with A729S, P732S, S771G, S815R, S860N, G906E, I915F
notes: also called T1c-Fc-T4wt; IL-17RA/RC-Fc-TNFR2
B4: T1-T4-06 (Fc fusion)
chain: B1 chain with P156A, A729S, P732S, S771G, S815R, S860N, G906E, I915F
notes: also called T1b-Fc-T4wt; IL-17RA/RC-Fc-TNFR2
B5: T1-T4-13 (Fc fusion)
chain: B1 chain with S771G
notes: also called T1c-Fc-T4f; IL-17RA/RC-Fc-TNFR2
B6: T1-T4-32 (Fc fusion)
chain: B1 chain with H665K, N666F
notes: also called T1c-Fcb-T4g; IL-17RA/RC-Fc-TNFR2
B7: T1-T4-31 (Fc fusion)
chain: B1 chain with M484Y, S486T, T488E
notes: also called T1c-Fca-T4g; IL-17RA/RC-Fc-TNFR2
B8: T1-T4-12 (Fc fusion)
chain: B1 chain with S771G, I915F
notes: also called T1c-Fc-T4e; IL-17RA/RC-Fc-TNFR2
B9: T1-T4-14 produced in pcDNA3.4 (Fc fusion)
chain: B1 chain
notes: Same named protein as T1-T4-14 but expressed from the pcDNA3.4 vector; also called IL-17RA/RC-Fc-TNFR2
B10: T1-T4-14+GT6 (glycan sialylated T1-T4-14) (Fc fusion)
chain: B1 chain
modifications: glycan sialylation (co-expressed with B4GALT6, fed with UMnG and ManNAc)
notes: Same polypeptide as T1-T4-14, with increased sialylation; also called T1-T4-14 produced in pcDNA3.4+GT6; glycan sialylated IL-17RA/RC-Fc-TNFR2
B11: T1-T4-11 (Fc fusion)
chain: B1 chain with S771G, G906E, I915F
notes: also called T1c-Fc-T4d; IL-17RA/RC-Fc-TNFR2
B12: T1-T4-08 (Fc fusion)
chain: B1 chain with P732S, S771G, S815R, S860N, G906E, I915F
notes: also called T1-T4-8; T1c-Fc-T4a
B13: T1-T4-09 (Fc fusion)
chain: B1 chain with S771G, S815R, S860N, G906E, I915F
notes: also called T1-T4-9; T1c-Fc-T4b
B14: T1-T4-10 (Fc fusion)
chain: B1 chain with S771G, S860N, G906E, I915F
notes: also called T1c-Fc-T4c; IL-17RA/RC-Fc-TNFR2
B15: human IL-17F (IL-17FF homodimer) (ligand, UniProt Q96PD4 31-163, looked up)
chain: RKIPKVGHTFFQKPESCPPVPGGSMKLDIGIINENQRVSMSRNIESRSTSPWNYTVTWDPNRYPSEVVQAQCRNLGCINAQGKEDISMNSVPIQQETLVVRRKHQGCSVSFQLEKVLVTVGCTCVTPVIHHVQ
notes: also called hIL-17F; hIL-17FF

These binders were tested against T2, human IL-17A (IL-17AA homodimer) (human, UniProt Q16552 20-155, limits assumed) (assay: cell-based or functional assay).
T2 sequence (Q16552 20-155 limits assumed): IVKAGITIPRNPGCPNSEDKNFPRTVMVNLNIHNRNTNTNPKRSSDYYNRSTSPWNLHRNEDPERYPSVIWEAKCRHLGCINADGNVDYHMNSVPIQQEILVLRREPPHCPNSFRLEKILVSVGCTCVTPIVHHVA

IC50 (ng/mL) of hIL-17A, SEAP reporter assay in HEK-Blue IL-17 cells	Binder
20.9 ng/mL	B1
23.7 ng/mL	B2
24.4 ng/mL	B3
24.7 ng/mL	B4
26.9 ng/mL	B5
20.5 ng/mL	B6
15.3 ng/mL	B7
19.9 ng/mL	B8

What follows are binders tested against T3, human TNFα (human, UniProt P01375 77-233) (assay: cell-based or functional assay).
T3 sequence (P01375 77-233 limits assumed): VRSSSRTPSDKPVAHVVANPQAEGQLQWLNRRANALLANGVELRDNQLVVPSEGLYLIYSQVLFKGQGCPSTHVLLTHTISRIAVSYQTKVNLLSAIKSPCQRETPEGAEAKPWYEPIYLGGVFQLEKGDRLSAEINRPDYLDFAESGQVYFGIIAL

IC50 (ng/mL) of hTNFα, SEAP reporter assay in HEK-Blue TNFα cells	Binder
14.9 ng/mL	B1
354 ng/mL	B3
249 ng/mL	B4
138 ng/mL	B5
116 ng/mL	B8

Each binder was assayed against B15 (assay: cell-based or functional assay).

IC50 (ng/mL) of hIL-17F, SEAP reporter assay in HEK-Blue IL-17 cells	Binder
1150 ng/mL	B1
1030 ng/mL	B2
2740 ng/mL	B3
2230 ng/mL	B4
1260 ng/mL	B6
1240 ng/mL	B7

Each binder was assayed against T2, human IL-17A (IL-17AA homodimer) (assay: ELISA).

EC50	Binder
0.0752 µg/mL	B1
0.0607 µg/mL	B9
0.0543 µg/mL	B10

What follows are binders tested against T3, human TNFα (assay: ELISA).

EC50	Binder
0.068 µg/mL	B1
0.0873 µg/mL	B9
0.0443 µg/mL	B10

Each binder was assayed against B15 (assay: ELISA).

EC50	Binder
0.0702 µg/mL	B1
0.0455 µg/mL	B9
0.0621 µg/mL	B10

Each binder was assayed against T2, human IL-17A (IL-17AA homodimer) (assay: ELISA, cytokine coated on plate, binder titrated, HRP secondary antibody).

EC50	Binder
0.00924 µg/mL	B1
0.0106 µg/mL	B11
0.0126 µg/mL	B12
0.00706 µg/mL	B3
0.0103 µg/mL	B4
0.0087 µg/mL	B13
0.0092 µg/mL	B5
0.0106 µg/mL	B14
0.00841 µg/mL	B8

Each binder was assayed against T3, human TNFα in the same assay as above.

EC50	Binder
0.0438 µg/mL	B1
2.04 µg/mL	B3
0.0233 µg/mL	B4
0.0406 µg/mL	B6
0.0627 µg/mL	B7

The binders below were run against B15 in the same assay as above.

EC50	Binder
0.13 µg/mL	B1
0.183 µg/mL	B3
0.0853 µg/mL	B7

The binders below were run against T1, wild-type IL-17RC (wtIL-17RC) (assay: binding affinity analysis of Table 12 (Octet BLI as described in Example 5)).

Kd	Binder
4 nM	B15

Reference: patent EP4682164A1 (Curogen Technology Co., Ltd., dated 2026)
